One block for each binder: values may come before it.
Legend:
[1] = molecular target: T1, extracellular domain of human DLL3 protein (aa27-466) having an N-terminal FLAG tag (AdipoGen, AG-40B-0151) (human, UniProt Q9NYJ7 27-466); assay: SPR (Biacore), same procedure as for the HCAbs, human DLL3 as analyte
T1 construct: range 27-466; also called DLL3 ECD protein
T1 sequence (looked up): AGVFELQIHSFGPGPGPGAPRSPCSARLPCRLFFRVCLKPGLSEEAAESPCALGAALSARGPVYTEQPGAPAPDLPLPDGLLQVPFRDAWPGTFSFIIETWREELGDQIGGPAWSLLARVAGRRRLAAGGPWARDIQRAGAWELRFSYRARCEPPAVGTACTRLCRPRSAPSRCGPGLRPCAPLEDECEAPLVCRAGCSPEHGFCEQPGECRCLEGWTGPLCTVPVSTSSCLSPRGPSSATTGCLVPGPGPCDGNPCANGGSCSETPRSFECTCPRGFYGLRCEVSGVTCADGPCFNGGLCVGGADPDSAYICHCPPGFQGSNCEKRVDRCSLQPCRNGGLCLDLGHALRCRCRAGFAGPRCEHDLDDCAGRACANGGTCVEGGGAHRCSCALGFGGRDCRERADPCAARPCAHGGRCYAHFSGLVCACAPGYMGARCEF

[2] = molecular target: T1, extracellular domain of human DLL3 …; assay: SPR (Biacore), captured antibody, human DLL3 as analyte
From the text: The camel and humanized sdAb sequences were fused with human IgG1 hinge and Fc, resulting the chimeric and humanized HCAb sequences. The DNAs encoding these HCAbs were synthesized and inserted into pTT5 vector. HCAb expression plasmids were used to transfect HEK293 cells. Crude HCAb proteins secreted to the medium were subjected to SPR affinity measurement as follows: briefly, capturing antibody anti-human Fc pAb (GE healthcare) was immobilized on a Biacore™ CM5 chip to approximately 6,000 RU using EDC-activated amine coupling chemistry. HCAb of interest was captured for 300 seconds onto the sensorchip surface. Human DLL3 (AdipoGen, AG-40B-0151) was flowed over the sensorchip surface at a series of increasing concentrations. Association and dissociation phases were monitored. Captured antibody and antigen were removed between cycles using 10 mM Glycine-HCl, pH 2.0 buffer in order to ensure a fresh binding surface for the antigen. The resulting sensorgrams were fit globally using a 1:1 binding model in order to calculate on- and off-rates (ka and kd, respectively), as well as affinities (KD).

koff [1]: 0.000559 s⁻¹ | kon [1]: 66000 M⁻¹ s⁻¹
B1: AS56704 scFv (scFv, V domains shown)
VH: EVQLVESGGGLVQPGGSLRLSCAASGFNISSSYMHWVRQAPGKGLEWVAYIYPSYGYTSYADSVKGRFTISADTSKNTAYLQMNSLRAEDTAVYYCARGGYYYHGMDYWGQGTLVTVSS
VL: DIQMTQSPSSLSASVGDRVTITCRASQSVSSAVAWYQQKPGKAPKLLIYSASSLYSGVPSRFSGSRSGTDFTLTISSLQPEDFATYYCQQASWSPITFGQGTKVEIK
notes: also called A556704

Kd [2]: 6.9 nM | koff [2]: 0.00071 s⁻¹ | kon [2]: 100000 M⁻¹ s⁻¹
B2: AS64062 HCAb (Fc fusion, not shown: a dimerising Fc or GST)
chain: QVRLVESGGGSVQVGGSLRLSCAASRSPYSSSRCMGWFRQAPGKEREGVAALYTGGGSTSYADSVKGRFTISQDNAKNTVYLQMNSLKPEDTAMYYCAAVVPRGGSCRLDERGYYHWGQGTQVTVSS

Kd [1]: 23 nM | koff [1]: 0.003 s⁻¹ | kon [1]: 130000 M⁻¹ s⁻¹
B3: AS56788 scFv (scFv, V domains shown)
VH: EVQLVESGGGLVQPGGSLRLSCAASGFNISSYSMHWVRQAPGKGLEWVAYISSYYGYTYYADSVKGRFTISADTSKNTAYLQMNSLRAEDTAVYYCARYSYYYGMDYWGQGTLVTVSS
VL: DIQMTQSPSSLSASVGDRVTITCRASQSVSSAVAWYQQKPGKAPKLLIYSASSLYSGVPSRFSGSRSGTDFTLTISSLQPEDFATYYCQQHYAPSLITFGQGTKVEIK
notes: also called A556788
